This note sets out measurements from publication PMC6838200, “Polarisome scaffolder Spa2-mediated macromolecular condensation of Aip5 for actin polymerization” (Nature Communications, 2019).

Series [1] concerns the molecule itself. Nature of the series: crystal structure; X-ray; sitting drop vapor diffusion at 20 °C; Aip5-C by SeMet-MAD, Aip5-C-3m by molecular replacement.
Series [2] has as its target G-actin (monomeric actin used in microscale thermophoresis) (rabbit, UniProt P68135 1-377). In words: MST; 2 µM G-actin mixed 1:1 with Aip5 loop peptide (highest stock 2 mM); G-buffer with 0.05% Tween 20; 25 °C; Kd mode fit. Particulars: both partners purified.

B1: Aip5-C-3m (L1150A, N1162A, S1165C) (domain or fragment, S. cerevisiae, UniProt P43597 1110-1233, looked up)
chain: DSTTQTTEQSKKNNDKPQDVITTSEIRKLNEKEPVYIYTSAAGGGFHMIPRTARLCTILTANRIPFTYRDLGTDDEARKVWKTFSKGRSLPGVVRGHNDLIGNWEEIEEANEDYKLRELIYDTI
notes: Aip5 (YFR016C), budding yeast, residues 1110-1233 with three point mutations; Homodimer in the crystal; also called triple mutant Aip5-C-3m; source: E. coli BL21 (DE3), purified
B1: the binding result in series [1] is on record as “binds”.

B2: Aip5 loop peptide (TSLAGGGFHM) (peptide)
peptide: TSLAGGGFHM
notes: also called loop containing peptide; peptides of Aip5 loop
For B2, in series [2], the Kd was determined as 99 ± 76 µM.

For orientation: Kd means the equilibrium constant for the complex coming apart. Low values mean tighter binding, high ones weaker binding.
